The data set concerns the molecule itself. The data set is described as follows: crystal structure.

B1: SNX1 (301–522) (domain or fragment)
chain: KMNESDIWFEEKLQEVECEEQRLRKLHAVVETLVNHRKELALNTAQFAKSLAMLGSSEDNTALSRALSQLAEVEEKIEQLHQEQANNDFFLLAELLSDYIRLLAIVRAAFDQRMKTWQRWQDAQATLQKKREAEARLLWANKPDKLQQAKDEILEWESRVTQYERDFERISTVVRKEVIRFEKEKSKDFKNHVIKYLETLLYSQQQLAKYWEAFLPEAKAIS
As for B1, the binding result was “binds”.

The record behind these values is article PMC3512392 (The EMBO Journal, 2012).
